According to IntAct's records for PubMed 25710501:

B1: Granule-bound starch synthase 1, chloroplastic/amyloplastic (Arabidopsis thaliana (Mouse-ear cress)), Q9MAQ0 (parent)
chain: MATVTASSNFVSRTSLFNNHGASSCSDVAQITLKGQSLTHCGLRSFNMVDNLQRRSQAKPVSAKSSKRSSKVKTAGKIVCEKGMSVIFIGAEVGPWSKTGGLGDVLGGLPPALAARGHRVMTICPRYDQYKDAWDTCVVVQIKVGDKVENVRFFHCYKRGVDRVFVDHPIFLAKVVGKTGSKIYGPITGVDYNDNQLRFSLLCQAALEAPQVLNLNSSKYFSGPYGEDVVFVANDWHTALLPCYLKSMYQSRGVYMNAKVVFCIHNIAYQGRFAFDDYSLLNLPISFKSSFDFMDGYEKPVKGRKINWMKAAILEAHRVLTVSPYYAQELISGVDRGVELHKYLRMKTVSGIINGMDVQEWNPSTDKYIDIKYDITTVTDAKPLIKEALQAAVGLPVDRDVPVIGFIGRLEEQKGSDILVEAISKFMGLNVQMVILGTGKKKMEAQILELEEKFPGKAVGVAKFNVPLAHMITAGADFIIVPSRFEPCGLIQLHAMRYGTVPIVASTGGLVDTVKDGYTGFHIGRFNVKCEVVDPDDVIATAKAVTRAVAVYGTSAMQEMVKNCMDQDFSWKGPARLWEKVLLSLNVAGSEAGTEGEEIAPLAKENVATP
partner: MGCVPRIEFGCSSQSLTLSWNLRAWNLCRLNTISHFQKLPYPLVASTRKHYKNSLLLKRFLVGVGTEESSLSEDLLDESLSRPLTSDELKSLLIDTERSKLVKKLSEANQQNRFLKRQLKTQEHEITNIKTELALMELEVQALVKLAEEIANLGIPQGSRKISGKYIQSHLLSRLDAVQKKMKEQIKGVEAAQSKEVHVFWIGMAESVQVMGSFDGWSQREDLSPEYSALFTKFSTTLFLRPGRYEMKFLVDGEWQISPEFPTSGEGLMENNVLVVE

Variants of: B1
Conditions: with ptst_arath PTST

Variant | effect of a mutation on the interaction
K441E | decreasing interaction strength
E449K | decreasing interaction strength
K441E;E452K | disrupting interaction strength
E452K | disrupting interaction strength

Variants of: B1
Conditions: with ptst_arath PTST
Remark: another data set of the same source

Variant | effect of a mutation on the interaction
K441E;E452K | decreasing interaction strength
E452K | decreasing interaction strength
